In IntAct's records for PubMed 24658140:

B1: Beta-arrestin-2 (Homo sapiens), P32121-4 (parent)
chain: MGEKPGTRVFKKSSPNCKLTVYLGKRDFVDHLDKVDPVDGVVLVDPDYLKDRKVFVTLTCAFRYGREDLDVLGLSFRKDLFIATYQAFPPVPNPPRPPTRLQDRLLRKLGQHAHPFFFTVRMPLPSEGQGAGAGTVSGVGIPQNLPCSVTLQPGPEDTGKACGVDFEIRAFCAKSLEEKSHKRNSVRLVIRKVQFAPEKPGPQPSAETTRHFLMSDRSLHLEASLDKELYYHGEPLNVNVHVTNNSTKTVKKIKVSVRQYADICLFSTAQYKCPVAQLEQDDQVSPSSTFCKVYTITPLLSDNREKRGLALDGKLKHEDTNLASSTIVKEGANKEVLGILVSYRVKVKLVVSRGGDVSVELPFVLMHPKPHDHIPLPRPQSAAPETDVPVDTNLIEFDTNYATDDDIVFEDFARLRLKGMKDDDYDDQLC
B2: Receptor tyrosine-protein kinase erbB-4 (Homo sapiens), Q15303 (parent)
chain: MKPATGLWVWVSLLVAAGTVQPSDSQSVCAGTENKLSSLSDLEQQYRALRKYYENCEVVMGNLEITSIEHNRDLSFLRSVREVTGYVLVALNQFRYLPLENLRIIRGTKLYEDRYALAIFLNYRKDGNFGLQELGLKNLTEILNGGVYVDQNKFLCYADTIHWQDIVRNPWPSNLTLVSTNGSSGCGRCHKSCTGRCWGPTENHCQTLTRTVCAEQCDGRCYGPYVSDCCHRECAGGCSGPKDTDCFACMNFNDSGACVTQCPQTFVYNPTTFQLEHNFNAKYTYGAFCVKKCPHNFVVDSSSCVRACPSSKMEVEENGIKMCKPCTDICPKACDGIGTGSLMSAQTVDSSNIDKFINCTKINGNLIFLVTGIHGDPYNAIEAIDPEKLNVFRTVREITGFLNIQSWPPNMTDFSVFSNLVTIGGRVLYSGLSLLILKQQGITSLQFQSLKEISAGNIYITDNSNLCYYHTINWTTLFSTINQRIVIRDNRKAENCTAEGMVCNHLCSSDGCWGPGPDQCLSCRRFSRGRICIESCNLYDGEFREFENGSICVECDPQCEKMEDGLLTCHGPGPDNCTKCSHFKDGPNCVEKCPDGLQGANSFIFKYADPDRECHPCHPNCTQGCNGPTSHDCIYYPWTGHSTLPQHARTPLIAAGVIGGLFILVIVGLTFAVYVRRKSIKKKRALRRFLETELVEPLTPSGTAPNQAQLRILKETELKRVKVLGSGAFGTVYKGIWVPEGETVKIPVAIKILNETTGPKANVEFMDEALIMASMDHPHLVRLLGVCLSPTIQLVTQLMPHGCLLEYVHEHKDNIGSQLLLNWCVQIAKGMMYLEERRLVHRDLAARNVLVKSPNHVKITDFGLARLLEGDEKEYNADGGKMPIKWMALECIHYRKFTHQSDVWSYGVTIWELMTFGGKPYDGIPTREIPDLLEKGERLPQPPICTIDVYMVMVKCWMIDADSRPKFKELAAEFSRMARDPQRYLVIQGDDRMKLPSPNDSKFFQNLLDEEDLEDMMDAEEYLVPQAFNIPPPIYTSRARIDSNRSEIGHSPPPAYTPMSGNQFVYRDGGFAAEQGVSVPYRAPTSTIPEAPVAQGATAEIFDDSCCNGTLRKPVAPHVQEDSSTQRYSADPTVFAPERSPRGELDEEGYMTPMRDKPKQEYLNPVEENPFVSRRKNGDLQALDNPEYHNASNGPPKAEDEYVNEPLYLNTFANTLGKAEYLKNNILSMPEKAKKAFDNPDYWNHSLPPRSTLQHPDYLQEYSTKYFYKQNGRIRPIVAENPEYLSEFSLKPGTVLPPPPYRHRNTVV
partner: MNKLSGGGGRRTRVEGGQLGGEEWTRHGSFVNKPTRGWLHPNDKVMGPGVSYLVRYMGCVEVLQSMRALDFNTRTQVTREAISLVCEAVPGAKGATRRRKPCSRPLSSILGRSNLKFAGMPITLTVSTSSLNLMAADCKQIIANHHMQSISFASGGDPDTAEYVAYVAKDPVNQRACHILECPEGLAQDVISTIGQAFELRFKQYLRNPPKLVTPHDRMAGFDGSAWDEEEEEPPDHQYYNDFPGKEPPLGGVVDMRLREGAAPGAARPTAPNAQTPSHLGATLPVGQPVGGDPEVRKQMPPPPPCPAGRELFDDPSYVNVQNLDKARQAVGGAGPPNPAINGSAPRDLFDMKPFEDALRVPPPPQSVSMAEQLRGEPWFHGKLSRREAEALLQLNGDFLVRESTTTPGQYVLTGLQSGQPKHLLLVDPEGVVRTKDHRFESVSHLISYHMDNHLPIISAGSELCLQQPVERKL

Variants of: B1
Details: with adrb2_human ADRB2, P07550

| effect of a mutation on the interaction | Variant |
| --- | --- |
| decreasing interaction strength | R169E |

Variants of: B2
Details: with SHC1, P29353-7

| effect of a mutation on the interaction | Variant |
| --- | --- |
| increasing interaction strength | E872K |
| increasing interaction strength | E542K |
